We go through two molecules from paper PMC5934816, “Towards development of aptamers that specifically bind to lactate dehydrogenase of Plasmodium falciparum through epitopic targeting”.

What is called Kd is a measure of binding affinity in units of concentration.

The target of series [1] is rPvLDH, lactate dehydrogenase (Plasmodium vivax, UniProt Q4PRK9 1-316). As to the kind of experiment: ELONA. Particulars: protein: recombinant; chain copies: 4.
The target in series [2] is rPfLDH, lactate dehydrogenase (Plasmodium falciparum, UniProt Q71T02 1-316). Description: ELONA; ELONA: 500 ng immobilized protein; aptamer in HMCKN (2 mM HEPES, 0.2 mM MgCl2, 0.2 mM CaCl2, 0.2 mM KCl, 15 mM NaCl, pH 7.4), 2 h, room temperature; washes HMCKN then 25 mM TBS pH 7.6, 0.1% NP-40. Particulars: protein: recombinant; chain copies: 4; label: 5'-biotin.

Turning to GTTCGATTGGATTGTGCCGGAAGTGCTGGCTCGAAC (ssDNA) [pL1], the Kd in series [1] was 79.2 ± 12.7 nM.

B1: C7 concatemer control (ssDNA)
DNA: ACTTTGCACATGCTTATTCTTGTCTCCCATGCCTGTTGTGAGCCTCCTAAC
In the case of B1, the binding result in series [1] and in series [2] was “no binding” in each case.
